Values joined by “and” are separate entries in the source; they are usually repeats but may differ in a detail not shown here. Equal entries are not always repeated.
Conditions: Saccharomyces cerevisiae (strain ATCC 204508 / S288c), pH 7, 25 °C, GdnHCl, CD, phosphate 0.1 M, reversible: yes

Sequence of Cytochrome c isoform 1 H32Y, P00044 (P00044 whole entry H32Y, canonical isoform): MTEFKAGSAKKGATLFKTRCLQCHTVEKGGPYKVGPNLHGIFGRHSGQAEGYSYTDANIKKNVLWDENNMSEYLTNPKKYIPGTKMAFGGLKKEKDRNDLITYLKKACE
Sequence of Cytochrome c isoform 1 wild type, P00044 (P00044 whole entry, canonical isoform): as the sequence (P00044 whole entry H32Y, canonical isoform) above, with Y32H counted along it
Sequence of Cytochrome c isoform 1 H39Y, P00044 (P00044 whole entry H39Y, canonical isoform): as the sequence (P00044 whole entry H32Y, canonical isoform) above, with Y32H, H39Y counted along it

Row | Substance | ddG of mutation (higher = less stable) (structure 1YCC) | denaturant m value (structure 1YCC) | denaturant midpoint (higher = more stable) (structure 1YCC) | unfolding free energy (structure 1YCC) | denaturant m value | denaturant midpoint (higher = more stable) [M] | unfolding free energy
1 | Cytochrome c isoform 1 H39Y, P00044 | 0.6 kcal/mol | 2.87 kcal/mol/M | 1.6 M | 4.71 kcal/mol | – | – | –
2 | Cytochrome c isoform 1 wild type, P00044 | – | – | – | – | 2.96 kcal/mol/M and 2.94 kcal/mol/M | 1.8 | 5.35 kcal/mol and 5.31 kcal/mol
3 | Cytochrome c isoform 1 H32Y, P00044 | 1.82 kcal/mol and 2.1 kcal/mol | 2.41 kcal/mol/M and 2.39 kcal/mol/M | 1.4 M and 1.1 M | 3.54 kcal/mol and 3.2 kcal/mol | – | – | –

From FireProtDB (doi:10.1021/bi034132r)
